Measured values taken from patent publication US20240301061A1 (BEIGENE SWITZERLAND, published 2024).
Positions count from the first letter of the chain named. Names and notes keep the numbering of the source.

T1: human claudin 6 (CLDN6) (human, UniProt P56747 1-220)
T1 construct: also called human CLDN6; hCLDN6
T1 sequence: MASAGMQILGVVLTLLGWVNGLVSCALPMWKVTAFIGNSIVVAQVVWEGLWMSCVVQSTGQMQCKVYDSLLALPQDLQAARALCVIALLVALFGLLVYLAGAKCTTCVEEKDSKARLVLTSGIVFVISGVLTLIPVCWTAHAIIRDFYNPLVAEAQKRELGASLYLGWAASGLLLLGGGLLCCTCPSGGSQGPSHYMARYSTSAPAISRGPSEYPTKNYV

B1: BG87P-22 (antibody, V domains shown)
VH: QVQLVQSGAEVKKPGASVKVSCKASGYSFTDYHINWVRQAPGQRLEWMGWIYPGSGYTKYNEKFKGRVTITRDTSASTAYMELSSLRSEDTAVYFCARSGIYHYVSSYYFDHWGKGTTVTVSS
VL: DIQMTQSPSTLSASVGDRVTITCKASQDVGTAVAWYQQKPGKAPKLLIYWASTRHTGVPSRFSGSGSGTEFTLTISSLQPDDFATYYCQQYSSYTFGGGTKVEIK
B2: BG87P-21 (antibody, V domains shown)
VH: B1 VH with F95Y
VL: B1 VL
notes: 2nd round humanized variant
B3: BG87P-32 (antibody, V domains shown)
VH: B1 VH with V5Q, V11T, P41S, W50Y, Y57H, Y60K, F95Y
VL: B1 VL with V29A, T31S
notes: Solubility engineering variant of BG87P-21
B4: BG87P-33 (antibody, V domains shown)
VH: EVQLQESGGGLVQPGGSLRLSCAASGYSFTDYHINWVRQAPGKGLEWVSYIYPGSGHTKYNEKFKGRFTISRDTSKNTAYLQMNSLRAEDTAVYYCARSGIYHYVSSYYFDHWGQGTLVTVSS
VL: B1 VL with V29A, T31S
notes: Framework-swapped variant; also called BG87-33
B5: BG87P-31 (antibody, V domains shown)
VH: B1 VH with V5Q, V11T, P41S, W50Y, Y57H, Y60K, F95Y
VL: B1 VL with V29A, T31S, Y49K
notes: as for B3
B6: BG87P-34 (antibody, V domains shown)
VH: B4 VH with T30S, S49G, K76S
VL: B1 VL with T10S, V29A, T31S, E70D, D81E, V102L
notes: Final lead anti-CLDN6 clone (IGHV3-23 / IGKV1-39 framework); also called BG87-34
B7: anti-CLDN6 chimeric BG87P (antibody, V domains shown)
VH: QIQLQQSGPELVKPGASVKISCKASGYSFTDYHINWVKQRPGQGLEWIGWIYPGSGYTKYNEKFKVKATLTVDTSSSTAYMHLTSLTSEDSAVYFCARSGIYHYVSSYYFDHWGQGTTLTVSS
VL: DIVMTQSHTFMSTSVGDRVSITCKASQDVGTAVAWYQQKPGQSPKLLIYWASTRHTGVPDRFTGSGSGTDFTLTISNVQSEDLADYFCQQYSSYTFGGGTKLEIK
notes: expressed in HEK293T; also called chBG87P; ChBG87P
B8: BG87P-23 (antibody, V domains shown)
VH: B1 VH with V2I, F95Y
VL: B1 VL
B9: BG87P-24 (antibody, V domains shown)
VH: B1 VH with I70L, F95Y
VL: B1 VL
B10: BG87P-z0 (antibody, V domains shown)
VH: B1 VH with S28T, G66V, F95Y
VL: B1 VL
notes: Humanized, no back mutations; also called BG87P-20
B11: BG87P-27 (antibody, V domains shown)
VH: B1 VH with I70L
VL: B1 VL
B12: BG87P-25 (antibody, V domains shown)
VH: B1 VH with V2I, I70L, F95Y
VL: B1 VL
B13: BG87P-26 (antibody, V domains shown)
VH: B1 VH with V2I
VL: B1 VL
B14: BG87P-Bz0 (antibody, V domains shown)
VH: B1 VH with V2I, G66V, I70L, R72V
VL: B1 VL with A43S, L78V, Y87F
notes: Humanized, all back mutations; also called BG87P-B20; BG87-Bz0
B15: BG87P-Bz6 (antibody, V domains shown)
VH: B1 VH with V2I, G66V, I70L, R72V
VL: B1 VL with L78V, Y87F
notes: also called BG87P-B26
B16: BG87P-m5 (antibody, V domains shown)
VH: B1 VH with V2I, G66V, I70L, R72V, D111E
VL: B1 VL with A43S, L78V, Y87F
notes: PTM removal variant of BG87P-Bz0
B17: BG87P-Bz5 (antibody, V domains shown)
VH: B1 VH with V2I, G66V, I70L, R72V, F95Y
VL: B1 VL with A43S, L78V, Y87F
notes: also called BG87P-B25
B18: BG87P-Bz4 (antibody, V domains shown)
VH: B1 VH with V2I, G66V, I70L
VL: B1 VL with A43S, L78V, Y87F
notes: also called BG87P-B24
B19: BG87P-Bz1 (antibody, V domains shown)
VH: B1 VH with G66V, I70L, R72V
VL: B1 VL with A43S, L78V, Y87F
B20: BG87P-Bz8 (antibody, V domains shown)
VH: B1 VH with V2I, G66V, I70L, R72V
VL: B1 VL with A43S, L78V
B21: BG87P-m6 (antibody, V domains shown)
VH: B1 VH with V2I, G66V, I70L, R72V, D111Q
VL: B1 VL with A43S, L78V, Y87F
notes: as for B16
B22: BG87P-Bz2 (antibody, V domains shown)
VH: B1 VH with V2I, S28T, G66V, I70L, R72V
VL: B1 VL with A43S, L78V, Y87F
B23: BG87P-m8 (antibody, V domains shown)
VH: B1 VH with V2I, H33A, G66V, I70L, R72V
VL: B1 VL with A43S, L78V, Y87F
notes: Variant of BG87P-Bz0 with H33A
B24: BG87P-m7 (antibody, V domains shown)
VH: B1 VH with V2I, I70L, R72V
VL: B1 VL with A43S, L78V, Y87F
notes: as for B16
B25: BG87P-Bz7 (antibody, V domains shown)
VH: B1 VH with V2I, G66V, I70L, R72V
VL: B1 VL with A43S, Y87F
notes: also called BG87P-B27
B26: BG87P-Bz3 (antibody, V domains shown)
VH: B1 VH with V2I, G66V, R72V
VL: B1 VL with A43S, L78V, Y87F
notes: also called BG87P-B23
B27: BG87P-m2 (antibody, V domains shown)
VH: B7 VH with D111Q
VL: B7 VL
notes: PTM removal variant of chBG87P
B28: BG87P-m1 (antibody, V domains shown)
VH: B7 VH with D111E
VL: B7 VL
notes: as for B27
B29: BG87P-m3 (antibody, V domains shown)
VH: B7 VH with V66G
VL: B7 VL
notes: PTM removal variant of chBG87P with VH V65G
B30: BG87P-m4 (antibody, V domains shown)
VH: B7 VH with H33A
VL: B7 VL
notes: Variant of chBG87P with H33A

target: T1, human claudin 6 (CLDN6); experiment: flow cytometry, PA-1 cells
Protocol: (§1) For affinity determination, CLDN6 over-expressing HEK293T cells and cancer cell line PA-1 which express high levels of human CLDN6 were used to evaluate the binding activity of BG87P related engineering variants. Live cells were seeded in 96-well plate, and were incubated with a series of dilutions of chBG87P and engineered variants thereof. Goat anti-human IgG was used as second antibody to detect antibody binding to the cell surface. EC50 values for dose-dependent binding to CLDN6 expressing cell lines were determined by fitting the dose-response data to the four-parameter logistic model with GraphPad Prism. Cell binding activity of 1st round of BG87P humanization variants against HEK293T/human CLDN6 were compared to chBG87P and shown in FIG. 1A.

Point of comparison: B1, “Top MFI Mean” value 67800 MFI. Against it:
- B2 — higher, 76500 MFI

target: T1, human claudin 6 (CLDN6); experiment: flow cytometry, HEK293T-hCLDN6 cells; ratio to chBG87P

Point of comparison: B5, “FACS Emax ratio to BG87P” value 0.76. Against it:
- B3 — lower, 0.63
- B4 — higher, 0.91
- B6 — higher, 1.03
- B2 — lower, 0.66
- B7 — higher, 1

target: T1, human claudin 6 (CLDN6); experiment: flow cytometry, PA-1 cells; ratio to chBG87P
Protocol: as §1

Point of comparison: B8, “Emax ratio to BG87P” value 0.58. Against it:
- B9 — lower, 0.5
- B10 — lower, 0.43
- B11 — lower, 0.53
- B1 — lower, 0.54
- B12 — higher, 0.59
- B13 — lower, 0.54
- B2 — higher, 0.61
- B7 — higher, 1

target: T1, human claudin 6 (CLDN6); experiment: flow cytometry, HEK293T-human CLDN6 cells; ratio to chBG87P
Protocol: as §1

Point of comparison: B16, “Emax ratio to BG87P” value 0.66. Against it:
- B14 — lower, 0.56
- B15 — higher, 0.75
- B8 — higher, 0.77
- B17 — higher, 0.73
- B9 — higher, 0.73
- B18 — lower, 0.57
- B19 — lower, 0.52
- B10 — lower, 0.5
- B20 — higher, 0.68
- B11 — higher, 0.68
- B1 — higher, 0.71
- B21 — lower, 0.62
- B22 — lower, 0.44
- B12 — higher, 0.74
- B23 — lower, 0.28
- B13 — higher, 0.77
- B24 — higher, 0.7
- B2 — higher, 0.78
- B25 — higher, 0.81
- B26 — lower, 0.56
- B7 — higher, 1
- B27 — higher, 1.05
- B28 — higher, 1.08
- B29 — higher, 1.18
- B30 — higher, 0.74

target: T1, human claudin 6 (CLDN6); experiment: flow cytometry, HEK293-hCLDN6 cells; ratio to chBG87P

Point of comparison: B6, “FACS-Ec50 ratio to BG87P” value 1.17. Against it:
- B3 — higher, 1.31
- B4 — higher, 2.45
- B5 — higher, 1.6
- B2 — lower, 0.91
- B7 — lower, 1

target: T2, cyno CLDN6 (cyno); experiment: flow cytometry, HEK293T-cyno-CLDN6 cells; ratio to chBG87P
T2 construct: whole, on cells; also called cynomolgus CLDN6

Point of comparison: B4, “FACS Emax ratio to BG87P” value 0.75. Against it:
- B6 — higher, 1
- B2 — higher, 0.8
- B7 — higher, 1
